Our source for the Kd values is patent US12275778 (dated 2025).

Positions count from the first letter of the chain named.

To fix the notation:
B1: Fab combination 21 (antibody, V domains shown)
VH: EVQLQQSGPELVKPGASVKMSCKASGYTFTDYYMKWVKQSHGKSLEWIGDINPNNGETWYNQKFKDKATLTVDKSSSTAYMQLNSLTSEDSAVYYCATRYFDYWGQGTTLTVSS
VL: DIVLTQSPASLAVSLGQRATISCKASQSVDYDGTSYMNWFQQKAGQPPKRLIYAASNLESGIPARFSGRGSGTDFALNIHPVEEEDAATYYCQQSNEDPYTFGGGTKLEIKR
B2: parental Fab (TnT M-7) (antibody, V domains shown)
VH: B1 VH with W59F, Y100V
VL: B1 VL
B3: Fab combination 19 (antibody, V domains shown)
VH: B1 VH with W59F, Y100V, Y103F
VL: B1 VL
B4: Fab combination 16 (antibody, V domains shown)
VH: B1 VH with Y33I, W59F, Y103F
VL: B1 VL
B5: Fab combination 23 (antibody, V domains shown)
VH: B1 VH with Y103F
VL: B1 VL
B6: Fab combination 15 (antibody, V domains shown)
VH: B1 VH with Y33I, W59F, Y100V, Y103F
VL: B1 VL
B7: Fab combination 13 (antibody, V domains shown)
VH: B1 VH with Y33I, Y103F
VL: B1 VL
B8: Fab combination 5 (antibody, V domains shown)
VH: B1 VH with Y33F, Y103F
VL: B1 VL
B9: Fab combination 20 (antibody, V domains shown)
VH: B1 VH with W59F, Y103F
VL: B1 VL
B10: Fab combination 8 (antibody, V domains shown)
VH: B1 VH with Y33F, W59F, Y103F
VL: B1 VL
B11: Fab combination 11 (antibody, V domains shown)
VH: B1 VH with Y33I
VL: B1 VL
B12: Fab combination 9 (antibody, V domains shown)
VH: B1 VH with Y33I, W59F, Y100V
VL: B1 VL
B13: Fab combination 1 (antibody, V domains shown)
VH: B1 VH with Y33F, W59F, Y100V
VL: B1 VL
B14: Fab combination 17 (antibody, V domains shown)
VH: B1 VH with Y100V
VL: B1 VL
B15: Fab combination 3 (antibody, V domains shown)
VH: B1 VH with Y33F
VL: B1 VL
B16: Fab combination 4 (antibody, V domains shown)
VH: B1 VH with Y33F, Y100V, Y103F
VL: B1 VL
B17: Fab combination 12 (antibody, V domains shown)
VH: B1 VH with Y33I, Y100V, Y103F
VL: B1 VL
B18: Fab combination 18 (antibody, V domains shown)
VH: B1 VH with W59F
VL: B1 VL
B19: Fab combination 22 (antibody, V domains shown)
VH: B1 VH with Y100V, Y103F
VL: B1 VL
B20: Fab combination 2 (antibody, V domains shown)
VH: B1 VH with Y33F, Y100V
VL: B1 VL
B21: Fab combination 7 (antibody, V domains shown)
VH: B1 VH with Y33F, W59F, Y100V, Y103F
VL: B1 VL

The target of the experiment is cardiac troponin T (recombinant human) (human). Description: SPR, 37C.
By Kd is commonly meant a measure of binding affinity in units of concentration. For B1, the Kd was found to be 1600 pM.
As for B2, the Kd came to 580 pM.
To B3 belongs 460 pM; to B4, 3400 pM.
Under B5 stands 1200 pM.
To B6 belongs 1100 pM; to B7, 620 pM.
As for B8, the Kd amounted to 230 pM.
Under B9 stands 1100 pM; under B10, 200 pM; under B11, 1000 pM.
Turning to B12, the Kd came out at 1200 pM.
To B13 belongs 620 pM; to B14, 540 pM.
To B15 belongs 370 pM.
To B16 belongs 2.7 pM.
As to B17, the Kd came out at 320 pM.
Under B18 stands 1600 pM; under B19, 0.0038 pM.
To B20 belongs 460 pM; to B21, 450 pM.
